Measurements from IntAct's records for PubMed 12620186.

Biological target: wipf1_human WIPF1 (UniProt O43516)
Sequence (O43516 whole entry): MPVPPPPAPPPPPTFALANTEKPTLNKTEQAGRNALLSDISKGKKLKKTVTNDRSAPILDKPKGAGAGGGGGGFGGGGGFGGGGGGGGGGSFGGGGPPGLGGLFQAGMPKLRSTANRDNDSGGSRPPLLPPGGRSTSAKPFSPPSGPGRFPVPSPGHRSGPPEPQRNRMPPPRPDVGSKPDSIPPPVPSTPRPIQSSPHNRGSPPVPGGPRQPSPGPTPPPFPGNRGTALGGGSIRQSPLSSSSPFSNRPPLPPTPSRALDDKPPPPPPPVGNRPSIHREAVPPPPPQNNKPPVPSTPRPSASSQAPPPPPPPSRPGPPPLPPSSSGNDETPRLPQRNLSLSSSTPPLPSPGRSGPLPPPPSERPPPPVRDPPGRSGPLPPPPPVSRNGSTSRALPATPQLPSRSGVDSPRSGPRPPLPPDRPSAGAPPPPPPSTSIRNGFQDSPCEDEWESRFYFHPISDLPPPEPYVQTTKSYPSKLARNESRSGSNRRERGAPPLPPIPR

Src substrate cortactin (Mus musculus), Q60598 W526K, sequence (Q60598 whole entry W526K): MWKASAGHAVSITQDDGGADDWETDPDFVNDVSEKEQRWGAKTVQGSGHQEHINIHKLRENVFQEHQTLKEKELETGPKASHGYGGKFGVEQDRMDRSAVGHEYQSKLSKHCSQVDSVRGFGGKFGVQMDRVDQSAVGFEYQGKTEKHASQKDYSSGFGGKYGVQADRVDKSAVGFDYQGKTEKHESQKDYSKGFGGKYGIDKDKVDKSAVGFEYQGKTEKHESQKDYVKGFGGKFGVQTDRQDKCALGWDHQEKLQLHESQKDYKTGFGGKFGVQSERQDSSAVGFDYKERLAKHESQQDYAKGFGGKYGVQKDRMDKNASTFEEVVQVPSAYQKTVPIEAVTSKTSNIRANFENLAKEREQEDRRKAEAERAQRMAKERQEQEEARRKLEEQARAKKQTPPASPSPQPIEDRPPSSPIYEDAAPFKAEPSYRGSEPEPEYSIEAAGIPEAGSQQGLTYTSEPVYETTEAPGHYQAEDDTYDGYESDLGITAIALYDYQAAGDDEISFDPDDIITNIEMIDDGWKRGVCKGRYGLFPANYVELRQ

Src substrate cortactin (Mus musculus), Q60598 W526K
effect of a mutation on the interaction: disrupting interaction
